Substitutions are numbered along the chain they refer to.

The chains are these.
B1: TDI-Y-005 ADC with PNU-159682 and a cleavable Glu-Val-Cit linker (antibody, human IgG1, kappa, V domains shown)
VH: EVQMVESGGGLVQPGGSLRLSCAAPGFIFSSYNMNWVRQAPGKGLEWVSYISSSSSTTYYADSVKGRFTISRDNAKNSLYLQMNSLRDEDTAVYYCASLYSGYDYYYYYGMDVWGQGTTVTVSS
VL: DIVMTQTPLSSPVSLGQPASISCRSSQSLVHSDGNTYLSWLQQRPGQPPRVLIYKISKRFSGVPDRFSGSGAGTDFTLKISRVEAEDVGVYYCMQATQFPFTFGPGTKVDIKR
modifications: ThioBridge linker-payload on the interchain disulfide cysteine; ThioBridge-Glu[-Glu(OH)-Val-Cit-PAB-DMEA-PNU159682]-PEG(24) rebridging the reduced interchain disulfide cysteines; average DAR about 4
B2: TDI-Y-004 ADC with PNU-159682 and a cleavable Glu-Val-Cit linker (antibody, human IgG1, kappa, V domains shown)
VH: QVQLVQSGAEVKKPGSSVKVSCKASGYTFTNYYIHWVRQAPGQGLEWMGKIGPGSGSPYYQGMFKDRVTITADESTSTAYMELSSLRSEDTAVYYCARWLLPFDYWGQGTLVTVSS
VL: EIVLTQSPGTLSLSPGERATLSCRASSSVNYMHWYQQKPGQAPRLLIYATSILASGIPDRFSGSGSGTDYTLTISRLEPEDFAVYYCQQFSSDPLTFGGGTKVEIKR
modifications: ThioBridge linker-payload on the interchain disulfide cysteine; ThioBridge-Glu[-Glu(OH)-Val-Cit-PAB-DMEA-PNU159682]-PEG(24) rebridging the reduced interchain disulfide cysteines; average DAR about 4
B3: 13G04 (antibody, V domains shown)
VH: QVQLVQSGAEVKKPGASVKVSCKASGYTFIGYYLHWVRQAPGQGLEWMGWINPNSGGTNSAQKFQGRVTMTRDTSISTTYMDLSRLRSDDTAVYYCARGGLERRDAFDIWGQGTLVTVSS
VL: DIQMTQSPSTLSASVGDRVTITCRASQSISNWLAWYQQKPGKAPNLLIYKASSLESGVPSRFSGSGSGTEFTLTISSLQPDDFATYYCQQYDTYRTFGQGTKVEIK
notes: mAb from AlivaMab mice, purified from hybridoma supernatant
B4: 15G02 (antibody, V domains shown)
VH: EVQLVESGGGLVQPGGSLRLSCGVSGFTFSHYWMNWVRQAPGKGLEWVANIMQDGSEKYYVDSVKGRFTISRDNAKNSLYLQMNSLRVEDTAVYYCARDRGVTTLFDYWGQGILVTVSS
VL: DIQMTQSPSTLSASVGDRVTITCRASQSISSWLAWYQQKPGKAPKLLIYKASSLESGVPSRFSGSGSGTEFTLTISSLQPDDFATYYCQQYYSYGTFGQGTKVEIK
notes: as for B3
B5: 04B06 (antibody, V domains shown)
VH: QVQLQESGPGLVKPSETLSLTCTVSGGSINSYYWSWIRQPAGKGLEWIGRFYTSGSTNHNPSLKSRVTMSVDTSKNQFSLKLTSVTAADTAVYYCAREWSGSFYGGDAFDIWGQGTMVTVSS
VL: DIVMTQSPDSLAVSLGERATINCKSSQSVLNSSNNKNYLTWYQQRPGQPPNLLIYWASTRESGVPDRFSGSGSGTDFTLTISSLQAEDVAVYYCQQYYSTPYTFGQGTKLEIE
notes: mAb from AlivaMab mice (human immunoglobulin repertoire), purified from hybridoma supernatant
B6: 14A10 (antibody, V domains shown)
VH: B1 VH
VL: DIVMTQTPLSSPVSLGQPASISCRSSQSLVHSDGNTYLSWLQQRPGQPPRVLIYKISKRFSGVPDRFSGSGAGTDFTLKISRVEAEDVGVYYCMQATQFPFTFGPGTKVDIK
notes: mAb from AlivaMab mice
B7: 143G03 (antibody, V domains shown)
VH: QVQLRQSGAELVRPGTSVKMSCKASGYTFTNYYIHWVKQRPGQGLEWIGKIGPGSGSPYYNGMFKDKATLTVDTSSSTAYMQLSSLTSEDSAVYFCARWLLPFDYWGQGTTLTVSS
VL: QIVLSQSPGILSASPGEKVTMTCRASSSVNYMHWYQQKSGSSPKPWIFATSILASGVPPRFSGSGSGTSYSLTISSVEAEDTATYYCQQFSSDPLTFGAGTKLELK
notes: mAb from wild-type mice; also called 143G03 WT; murine 143G03 mAb
B8: 13F04 (antibody, V domains shown)
VH: QVQLQQPGAELVKPGASVKLSCKASGYIFISYWMHWVKQRPGQGLEWIGEINPRNGRTNYNEKFKSKATLTVDKSSSTAYMQLTSLTSEDSAVYYCARGGDYGGSFDYWGQGTTLTVSS
VL: DIVLTQSPASLAVSLGQRATISCRASESVDSYGNSFMHWYQQKPGQPPKLLIYRASNLESGIPARFSGSGSRTDFTLTVNPVEADDVATYYCQQSNEDPWTFGGGTKLEIK
notes: mAb from wild-type mice, purified from the supernatant of a hybridoma clone; also called L1CAM mAb 13F04
B9: 76H12 Fab construct 2 (humanized) (Fab, V domains shown)
VH: QVQLVQSGAEVKKPGASVKVSCKASGYTFTSYWMHWVRQAPGQGLEWMGNVYPGSGSTKYAQKFQGRVTMTRDTSTSTVYMELSSLRSEDTAVYYCARPGNYEGFAYWGQGTLVTVSS
VL: NIQLTQSPSSLSASVGDRVTITCRASESVDSYGSSFMHWYQQKPGKPPKLLIYLASNLESGVPSRFSGSGSGTDFTLTISSLQPEDFATYYCQQNNEDPWTFGQGTKLEIK
notes: also called Fab 2
B10: 76H12 Fab construct 1 (chimeric; parental mouse 76H12 V-regions) (Fab, V domains shown)
VH: QVQLQQPGSDLVRPGTSVKLSCKASGYTFTSYWMHWVKQRPGQGLEWIGNVYPGSGSTKYDEKFKTKATLTVDTSSNTAYMELSSLTSEDSAVYYCTRPGNYEGFAYWGQGTLVTVSA
VL: B8 VL with D1N, N34S, R54L, I62V, V79I, N80D, V87A, S95N
notes: also called Fab 1; chimeric 76H12 Fab
B11: hu14A10 (antibody, V domains shown)
VH: B1 VH
VL: B6 VL
B12: Ch143G03-GF (antibody, V domains shown)
VH: B7 VH
VL: B7 VL
notes: read as chimeric 143G03 (murine variable regions of 143G03, human constant regions). '-GF' is not explained

T5 sequence (P11627 20-1260): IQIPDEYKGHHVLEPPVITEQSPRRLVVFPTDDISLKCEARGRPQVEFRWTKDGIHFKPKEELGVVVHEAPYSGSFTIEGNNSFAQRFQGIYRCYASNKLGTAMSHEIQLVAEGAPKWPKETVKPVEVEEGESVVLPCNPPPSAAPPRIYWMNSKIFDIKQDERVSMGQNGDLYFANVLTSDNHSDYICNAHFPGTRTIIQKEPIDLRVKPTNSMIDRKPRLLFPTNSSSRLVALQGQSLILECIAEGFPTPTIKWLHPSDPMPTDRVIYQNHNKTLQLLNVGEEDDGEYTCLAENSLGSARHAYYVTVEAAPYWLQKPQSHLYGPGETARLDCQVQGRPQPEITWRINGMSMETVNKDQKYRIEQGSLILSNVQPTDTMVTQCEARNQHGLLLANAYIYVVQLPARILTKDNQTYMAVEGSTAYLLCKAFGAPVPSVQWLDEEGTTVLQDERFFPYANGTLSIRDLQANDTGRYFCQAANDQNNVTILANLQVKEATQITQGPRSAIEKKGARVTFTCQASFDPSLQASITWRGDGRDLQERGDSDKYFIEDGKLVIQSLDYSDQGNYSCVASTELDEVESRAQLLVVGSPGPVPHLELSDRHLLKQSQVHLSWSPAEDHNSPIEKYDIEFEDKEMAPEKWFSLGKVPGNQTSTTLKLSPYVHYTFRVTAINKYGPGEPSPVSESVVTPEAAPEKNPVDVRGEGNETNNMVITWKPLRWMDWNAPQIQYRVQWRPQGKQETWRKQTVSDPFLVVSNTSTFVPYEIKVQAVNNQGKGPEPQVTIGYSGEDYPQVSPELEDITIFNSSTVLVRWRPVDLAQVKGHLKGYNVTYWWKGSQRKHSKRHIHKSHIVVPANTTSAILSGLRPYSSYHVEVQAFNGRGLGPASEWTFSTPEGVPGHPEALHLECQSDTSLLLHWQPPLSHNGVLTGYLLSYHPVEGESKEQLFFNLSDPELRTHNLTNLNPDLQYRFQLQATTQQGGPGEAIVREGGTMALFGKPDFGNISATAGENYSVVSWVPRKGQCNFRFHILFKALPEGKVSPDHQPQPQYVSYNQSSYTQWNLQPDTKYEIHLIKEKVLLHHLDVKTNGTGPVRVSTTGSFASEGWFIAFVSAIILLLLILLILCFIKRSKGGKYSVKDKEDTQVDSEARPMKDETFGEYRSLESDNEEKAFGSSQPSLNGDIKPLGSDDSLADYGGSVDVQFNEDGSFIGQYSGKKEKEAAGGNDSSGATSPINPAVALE
T4 sequence (P32004 20-1120): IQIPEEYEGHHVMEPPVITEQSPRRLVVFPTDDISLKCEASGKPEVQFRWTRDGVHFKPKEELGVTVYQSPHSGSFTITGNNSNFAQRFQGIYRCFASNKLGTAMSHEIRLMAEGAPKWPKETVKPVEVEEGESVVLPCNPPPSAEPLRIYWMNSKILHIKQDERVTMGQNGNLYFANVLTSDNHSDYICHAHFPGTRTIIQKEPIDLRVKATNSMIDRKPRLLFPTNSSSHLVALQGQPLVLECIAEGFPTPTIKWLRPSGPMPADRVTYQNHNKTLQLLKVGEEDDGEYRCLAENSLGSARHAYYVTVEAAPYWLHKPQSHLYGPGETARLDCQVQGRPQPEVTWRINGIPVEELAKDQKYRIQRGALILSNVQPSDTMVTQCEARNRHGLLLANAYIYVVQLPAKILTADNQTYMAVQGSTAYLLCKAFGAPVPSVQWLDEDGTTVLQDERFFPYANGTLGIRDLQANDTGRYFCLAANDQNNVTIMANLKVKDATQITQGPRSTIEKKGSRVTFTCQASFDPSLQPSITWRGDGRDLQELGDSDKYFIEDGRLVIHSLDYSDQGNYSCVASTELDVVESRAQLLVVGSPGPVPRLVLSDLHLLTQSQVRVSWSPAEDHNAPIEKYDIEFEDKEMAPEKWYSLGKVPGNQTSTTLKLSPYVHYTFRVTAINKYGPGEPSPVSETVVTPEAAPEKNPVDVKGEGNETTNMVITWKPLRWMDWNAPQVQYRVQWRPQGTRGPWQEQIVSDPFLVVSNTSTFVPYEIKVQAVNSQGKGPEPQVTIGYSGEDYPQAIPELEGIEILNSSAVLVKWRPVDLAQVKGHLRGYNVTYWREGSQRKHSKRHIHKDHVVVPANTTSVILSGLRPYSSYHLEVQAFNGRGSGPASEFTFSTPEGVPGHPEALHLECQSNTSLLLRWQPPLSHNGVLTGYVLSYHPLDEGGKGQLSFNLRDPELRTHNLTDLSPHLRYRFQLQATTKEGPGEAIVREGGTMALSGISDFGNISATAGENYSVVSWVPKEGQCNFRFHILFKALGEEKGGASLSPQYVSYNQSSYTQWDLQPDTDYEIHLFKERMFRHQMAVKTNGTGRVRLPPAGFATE
T2 sequence (P32004 20-1120): as above

The target of one assay is T1, human L1CAM on cells (human, UniProt P32004 20-1257). Nature of the assay: cell-based or functional assay.
T1 sequence (P32004 20-1257): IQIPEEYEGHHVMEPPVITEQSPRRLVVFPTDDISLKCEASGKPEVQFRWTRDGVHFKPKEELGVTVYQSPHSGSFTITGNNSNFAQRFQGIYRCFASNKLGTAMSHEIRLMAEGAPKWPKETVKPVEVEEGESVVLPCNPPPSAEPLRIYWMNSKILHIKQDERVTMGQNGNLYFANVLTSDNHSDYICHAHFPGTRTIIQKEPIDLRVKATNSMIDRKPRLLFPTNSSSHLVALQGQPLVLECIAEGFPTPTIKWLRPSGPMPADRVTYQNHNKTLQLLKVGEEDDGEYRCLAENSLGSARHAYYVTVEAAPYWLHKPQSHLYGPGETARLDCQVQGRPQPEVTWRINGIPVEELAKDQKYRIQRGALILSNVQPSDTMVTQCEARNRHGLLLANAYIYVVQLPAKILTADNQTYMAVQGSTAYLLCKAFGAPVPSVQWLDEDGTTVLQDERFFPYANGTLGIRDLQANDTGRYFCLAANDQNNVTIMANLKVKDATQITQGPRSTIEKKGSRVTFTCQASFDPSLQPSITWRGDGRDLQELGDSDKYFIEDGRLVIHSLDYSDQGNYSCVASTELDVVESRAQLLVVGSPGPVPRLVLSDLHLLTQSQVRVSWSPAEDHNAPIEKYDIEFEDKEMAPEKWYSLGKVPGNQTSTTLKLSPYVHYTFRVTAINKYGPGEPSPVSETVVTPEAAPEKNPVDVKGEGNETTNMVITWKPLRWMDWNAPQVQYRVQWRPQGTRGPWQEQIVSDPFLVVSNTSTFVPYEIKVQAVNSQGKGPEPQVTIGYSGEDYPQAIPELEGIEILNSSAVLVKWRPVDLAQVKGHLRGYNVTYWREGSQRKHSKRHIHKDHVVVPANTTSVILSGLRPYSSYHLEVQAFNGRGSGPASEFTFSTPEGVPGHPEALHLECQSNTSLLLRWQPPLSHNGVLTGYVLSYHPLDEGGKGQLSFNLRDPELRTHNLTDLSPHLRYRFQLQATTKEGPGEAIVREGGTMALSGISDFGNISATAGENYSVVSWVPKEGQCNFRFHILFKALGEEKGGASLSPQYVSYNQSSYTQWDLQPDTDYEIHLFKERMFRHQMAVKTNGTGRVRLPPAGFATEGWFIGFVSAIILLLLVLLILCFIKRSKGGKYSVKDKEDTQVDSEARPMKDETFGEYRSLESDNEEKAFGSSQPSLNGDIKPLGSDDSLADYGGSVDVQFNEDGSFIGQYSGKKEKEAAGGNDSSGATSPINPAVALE
On to B1, for which the “EC50 of cytotoxicity, HEK293T-hL1CAM cells (CellTiterGlo, 96 hours)” value was determined as 0.03 nM; the “EC50 of cytotoxicity, MCF-7 cells (CellTiterGlo, 96 hours)” value was 0.4 nM; the “EC50 of cytotoxicity, MDA-MB-231 cells (CellTiterGlo, 96 hours)” value is 12.4 nM.
With B2, the “EC50 of cytotoxicity, HEK293T-hL1CAM cells (CellTiterGlo, 96 hours)” value came to 0.008 nM; the “EC50 of cytotoxicity, MCF-7 cells (CellTiterGlo, 96 hours)” value was found to be 0.03 nM; the “EC50 of cytotoxicity, MDA-MB-231 cells (CellTiterGlo, 96 hours)” value was determined as 3.3 nM.

In the next assay the target is T1, human L1CAM on cells. Put plainly: flow cytometry, MCF-7 cells. Here is the method: (§1) Binding Analysis. […] Dissociation constants (KD) for binding to soluble human and cynomolgus monkey L1CAM-His were determined using biolayer interferometry (BLI). In addition, EC50 values for binding to cell-bound L1CAM were established by flow cytometry using HEK293T/FT cells overexpressing human or mouse L1CAM, MCF-7 cells, and MDA-MB-231 cells. In addition, the epitope regions of the mAbs were determined by BLI interaction analysis with L1CAM subdomains (Ig and FN) expressed individually, and by a BLI competition experiment to identify epitope bins.
As for B3, it took 4.8 nM to reach a half-maximal effect (EC50).
Take B4: the EC50 amounted to 1 nM.
As for B5, the midpoint of the response, the EC50, lay at 1.1 nM.
The same measure, in the same setting: the figure for B6 is 5.3 nM; for B7 it is 0.35 nM.
Still for that read-out and setting: the figure for B8 is 1.2 nM.

Another assay has as its target T2, extracellular domain of human L1CAM (isoform 1) fused to a poly-histidine tag via its carboxy terminus (human, UniProt P32004 20-1120).
T2 construct: Bought (Creative Biomart); also called L1CAM-His; huL1CAM protein
Nature of the assay: BLI, soluble human L1CAM-His. Here is the method:
as §1
The molecule B4 gave a Kd of 0.58 nM.
As to B5, the Kd turned out to be 0.07 nM.
On the same count and under the same terms, the figure for B6 is 1.2 nM.
Turning to B7, the Kd came out at 0.12 nM.
On the same count and under the same terms, the figure for B8 is 1.13 nM.

The next assay addresses T1, human L1CAM on cells. Put plainly: flow cytometry, MDA-MB-231 cells. Here is the method: as §1
On to B3, for which the EC50 was 6.7 nM.
On the same count and under the same terms, in the case of B4 it was 0.98 nM; in that of B5, 9.6 nM; in that of B6, 8.9 nM.
The same measure, in the same setting: the figure for B7 is 0.9 nM; for B8 it is 1.7 nM.

For another assay, the target named is T3, soluble cynomolgus monkey L1CAM, His-tagged, monomeric (cynomolgus monkey, UniProt A0A2K5URB5 20-1120).
T3 construct: also called cyL1CAM protein; cynomolgus L1CAM-His
Nature of the assay: BLI, soluble cynomolgus L1CAM-His. As for the experimental part:
as §1
B3 showed a Kd of 3.2 nM.
On the same count and under the same terms, in the case of B4 it was 0.93 nM.
Still for that read-out and setting: in the case of B5 it was 0.6 nM; in that of B6, 3.2 nM.
Regarding B7, the Kd was 0.34 nM.
On the same count and under the same terms, the figure for B8 is 19.8 nM.

A further assay addresses T4, recombinant L1CAM-Fc fusion protein (human, UniProt P32004 20-1120).
T4 construct: also called recombinant L1CAM protein; not shown: human Fc fused to the carboxy terminus
Put plainly: BLI, L1CAM-Fc on AHC biosensors, Fab 3-200 nM, 1:1 fit. As for the experimental part:
Here, recombinant L1CAM-Fc fusion protein was immobilized onto anti-Human IgG Fc Capture (AHC) biosensors and binding of Fabs was measured kinetically over a 3-200 nM concentration range. Kinetic data were fitted to a 1:1 binding model to compute association (kₒₙ) and dissociation (koff) rate constants, in addition to equilibrium dissociation constants (KD) as shown in Table 87.
Take B9: the Kd was 88.8 nM, the off-rate (koff) came out at 0.0706 s⁻¹ and the kon amounted to 797000 M⁻¹ s⁻¹.
Regarding B10, the Kd amounted to 39.6 nM, the off-rate (koff) turned out to be 0.0232 s⁻¹ and the kon was 586000 M⁻¹ s⁻¹.

A further assay concerns the target T1, human L1CAM on cells. Nature of the assay: flow cytometry, HEK293T cells overexpressing human L1CAM. Here is the method:
as §1
The molecule B3 showed an EC50 of 4.8 nM.
The same measure, in the same setting: the figure for B4 is 2.6 nM; for B5 it is 2.3 nM; for B6 it is 3.5 nM.
Take B7: the 50% effective concentration (EC50) stood at 1 nM.
In turn, B8 gave an EC50 of 4 nM.

The next assay has as its target T5, mouse L1CAM on transiently transfected HEK293FT cells (mouse, UniProt P11627 20-1260).
T5 construct: whole, on cells; also called mouse L1CAM on cells
Nature of the assay: flow cytometry, HEK293FT cells transfected with mouse L1CAM.
In the case of B3, the binding result is on record as “no binding”.
On the same count and under the same terms, the entry for B4 is “no binding”; for B5 it is “no binding”.
In turn, B6 returned a concentration for a half-maximal effect (EC50) of 5.6 nM.
Take B7: the binding result was “no binding”.
Still for that read-out and setting: the entry for B8 is “no binding”.

Another assay has as its target T2, extracellular domain of human L1CAM …. Nature of the assay: BLI, soluble human L1CAM-His; off-rate below detection limit.
Consider B3, for which the Kd was less than 0.02 nM.

The next assay concerns the target T1, human L1CAM on cells. Nature of the assay: FACS on cells expressing L1CAM (293FT or MDA-MB-231; the table does not say which). As for the experimental part: Briefly, CDR-grafted heavy and light chains were expressed in various combinations and the antigen-binding properties were evaluated.
For B11, the EC50 came out at 5.93 nM.
Still for that read-out and setting: the figure for B7 is 0.85 nM.
Still for that read-out and setting: in the case of B12 it was 0.727 nM.

Source of the values: patent publication US20250340636A1 (Memorial Sloan Kettering, published 2025).
